Results on two molecules are retold here after patent publication US20230374148A1, “BINDING MOLECULES THAT MULTIMERISE CD45” (UCB BIOPHARMA SRL, priority 2020, published 2023).

“And” between values parts separate entries of the source, which are not always exact repeats. Identical values can stand only once. Marks after values point to notes of the source that are not given here.

Common to all, as to format: cell-based
Series [1] concerns Dakiki. Description: Apoptosis of cell lines: Dakiki. Particulars: 21 hrs. From the text: (§1) The following cell lines representing various leukaemia's and lymphoma's, as classified by ATCC (www.atcc.org/), were used: Jurkat—acute T-cell leukaemia; CCRF-SB—B-cell acute lymphoblastic leukaemia; MC116—B-cell undifferentiated lymphoma; Raji, Ramos—Burkitt lymphoma (rare form of B-cell non-Hodgkin lymphoma); SU-DHL-4, SU-DHL-5, SU-DHL-8, NU-DUL-1, OCI-Ly3—Diffuse large B-cell lymphoma; THP-1—acute monocytic leukaemia; and Dakiki—B cell nasopharyngeal carcinoma.
(§2) Prior to an assay being performed, 1 vial of each of the above cell lines was thawed in a 37° C. water bath and then added to 20 ml complete media (RPMI 1640+2 mM GlutaMAX+1% Pen/Strep, all previous supplied by Invitrogen, +10% Fetal Bovine Serum (FBS), Sigma Aldrich). Cells were spun (500 g, 5 min, at RT) and re-suspended in 20 ml complete media to wash and spun again. Cells were resuspended in 10 ml complete media and then counted using a ChemoMetec NucleoCounter NC-3000. 6×10^6 cells of each cell line were spun (500 g, 5 min, at RT) and re-suspended in 4.8 ml complete media. 1×10^5 cells in 80 μl were then added to each well of a Corning Costar 96-well, cell culture treated, U-shaped-bottom microplate (cat no. 07-200-95). The plate was rested in a 37° C., 5% CO2 incubator for 2 hrs
(§3) Stocks of 4133-6294 BYbe and NegCtrl BYbe at 2500 nM in complete media were prepared. In a Greiner 96-well non-binding microplate, both reagents were serially diluted in complete media 1 in 5, seven times to produce to form an 8-point dose curve. […] (final well concentrations 500-0.0064 nM) was added to the cells. Each concentration was produced in triplicate. Camptothecin (cat no. C9911-100MG, Sigma Aldrich) and Staurosporine (cat no. 56942-200UL, Sigma Aldrich) were added as positive controls of apoptosis. Both were diluted in complete media and added to the well to produce a final concentration of 5 μM. Additional positive controls included anti-thymocyte globulin (ATG, indicated by FDA for use in conditioning regimens), Rituximab (anti-CD20, indicated by FDA for Non-Hodgkin Lymphoma and Chronic Lymphocytic Leukaemia) and Campath (anti-CD52, indicated by FDA for B-cell Chronic Lymphocytic Leukaemia). Anti-thymocyte globulin, Rituximab and Campath were added to the wells to produce final concentrations of 200 μg/ml, 500 nM and 200 μg/ml, respectively. […]
(§4) Following the incubation, the plates were spun at 500 g, 5 min, RT, the buffer was aspirated with a BioTek ELx405 microplate washer, and the cells were re-suspended in FACS buffer (PBS+1% bovine serum albumin (BSA)+0.1% NaN3+2 mM EDTA, Sigma Aldrich) to wash and then re-spun and buffer was aspirated to leave the cells in 20 μl residual media. […] Cells were analysed using the Bio-Rad ZE5 Cell Analyzer. […]

Series [2] has as its system SU-DHL-4. Description: Apoptosis of cell lines: SU-DHL-4. The conditions noted are these: SU-DHL-4, 21 hrs.
From the text: as §1, §2, §3, §4

For series [3], the system named is OCI-Ly3. Kind of series: Apoptosis of cell lines: OCI-Ly3. Particulars: OCI-Ly3, 21 hrs.
From the text: as §1, §2, §3, §4

Series [4] relates to MC116. Kind of series: Apoptosis of cell lines: MC116. Particulars: MC116, 21 hrs.
From the text: as §1, §2, §3, §4

The subject of series [5] is Human whole blood. Description: Cytokine release in whole blood at 24 hrs, Luminex bead assay. As for the experimental part:
Human whole blood (Lithium heparin tubes) was taken from two donors (HTA #300120-1 & #300120-2) at UCB Pharma Slough, UK according to approved ethical sample collection protocol.
In a Greiner 96-well non-binding microplate, stocks of 4133-6294 BYbe and negative control BYbe (NegCtrl BYbe), with antigen-irrelevant specificity in both the Fab and scFv positions, were prepared in PBS at 5000 nM. The BYbe reagents were then serially diluted in PBS 1 in 5, three times to produce to form a 4-point dose curve. 12.5 μl of BYbe dilution was transferred into Corning Costar 96-well, cell culture treated, U-shaped-bottom microplate (cat no. 07-200-95) and 237.5 μl of whole blood added to each well. Final well concentrations of BYbes were 250 nm, 50 nM, 10 nm and 2 nM. Campath (clinical grade, diluted from 30 mg/ml stock to 1 mg/ml in PBS, lot number F1002H29) was used as a positive control at a final concentration of 10 μg/ml. Plates were sealed with a gas permeable adhesive seal and plate lids were replaced. Plates were then incubated for 24 hrs at 37° C. and 5% humidified CO2 in an undisturbed location.
Cytokine release was then assessed using a R&D Systems Luminex 13-plex human cytokine assay (custom selection of cytokines as follows; IL-1 RA, IL-4, IL-5, IL-6, IL-10, IL-11, IL-13, CCL2, IL-8, CXCL1, CX3CL1, GM-CSF and M-CSF). Following the 24-hour incubation, plates were spun at 1000 g for 10 mins and 50 μl of plasma was transferred to a separate plate containing 50 μl of assay diluent buffer (RD6-52 from the Luminex kit). Samples were resuspended thoroughly using a multichannel pipette and 50 μl transferred to the Luminex assay plate. Luminex assay standards were diluted 1 in 2, seven times to construct standard curves and added to the plate. 50 μl of microparticle mixture was then added to each well and plates incubated for 2 hrs at room temperature (RT) and mixed at 800 rpm. Plates were washed 3 times by adding 150 μl of wash buffer to each well then allowing the magnetic beads to bind to a BioTek ELx405 microplate washer magnet before supernatant was aspirated. 50 μl of biotin-antibody cocktail was added to each well at plates incubated for 1 hr at RT with shaking. Plates were then washed as before and a final addition of 50 μl of streptavidin-PE added to each well. Plates were incubated for 30 mins at RT with shaking before a final wash step and addition of 50 μl of wash buffer to each well. The Luminex assay plate was run using the iQUEplus flow cytometer (Sartorius). Standard curves were generated (using provided assay controls) and extrapolated cytokine values generated using Forecyt software (Sartorius). Data was then transferred to Graphpad Prism version 8.1 (Graphpad) to generate data visualisations.

Where [6] appears, read: Campath 10 μg/ml, donor #300120-1.

On to “Campath: anti-CD52, clinical grade, indicated by FDA for B-cell Chronic Lymphocytic Leukaemia; positive control [reference compound]”, for which the “Campath mean (%) cell reduction” value in series [1] (200 μg/ml) is recorded as 8.83%; in series [2] (200 μg/ml) it was 92.46%; in series [3] (200 μg/ml) it was 6.72%; in series [4] (200 μg/ml) it was 70.24%. For the same molecule, the IL-6 level induced result in series [5] (Campath 10 μg/ml, above PBS-treated wells) is reported as “marked levels”. Besides, the CCL2 level induced result in series [5] (setting [6]) is on record as “exceeded the standard curve”. Besides, the “IL-1 RA level induced” value in series [5] (setting [6]) was “exceeded the standard curve”. The IL-8 level induced entry in series [5] (setting [6]) is recorded as “exceeded the standard curve”.

B1: 4133-6294 BYbe: anti-CD45 BYbe (Fab-scFv): 4133 Fab HC-G4S linker-6294 scFv heavy chain paired with 4133 light chain (antibody)
heavy: QEQLVESGGGLVQPEGSLTLTCTASGFSFSGNYYMCWVRQAPGKGLEWIGCLYTGSSGSTYYASWAKGRFTISKTSSTTVTLQMTSLTAADTATYFCARDLGYEIDGYGGLWGQGTLVTVSSGQPKAPSVFPLAPCCGDTPSSTVTLGCLVKGYLPEPVTVTWNSGTLTNGVRTFPSVRQSSGLYSLSSVVSVTSSSQPVTCNVAHPATNTKVDKTVAPSTCSKPGGGGSGGGGSEVQLVESGAELARPGASVKMSCKASGYTFTSYTMHWVKQRPGQCLEWIGYINPSSGYTEYNQKFKDKTTLTADKSSSTAYLQLSSLTSEDSAVYYCARVGDGFYPSWLAYWGQGTLVTVSSGGGGSGGGGSGGGGSGGGGSDIQMTQSPKFLLVSAGDRVTITCKASQSVRNDVAWYQQKPGQSPKLLIFYASKRYTGVPDRFTGSGYGTDFTFTISTVQAEDLAVYFCQQDYSSPTTFGCGTKLEIK
light: AQVLTQTPSPVSAVVGGTVSISCQASQSVYNNNNLSWYQQKPGQPPKLLIYDASKLASGVPSRFKGSGSGTQFTLTISGVQCDDAATYYCLGGYYSSGWYFAFGGGTKVVVKRTPVAPTVLIFPPAADQVATGTVTIVCVANKYFPDVTVTWEVDGTTQTTGIENSKTPQNSADCTYNLSSTLTLTSTQYNSHKEYTCKVTQGTTSVVQSFNRGDC
With B1, the “Bottom (%) level of % cell reduction” value in series [1] is reported as 10.88%; in series [2], 16.98%; in series [3], 10.54%; in series [4] (calculated bottom of non-sigmoidal curve), −65.46* %. The “Top (%) level of % cell reduction” value in series [1] was 76.37%; in series [2], 91.88%; in series [3], 39.84% and 39.94%; in series [4] it was 99.45%. Also, the “induction of inflammatory cytokines” value in series [5] (250-2 nM, compared with PBS- and NegCtrl BYbe-treated wells) is reported as “little or no induction”.
